From patent US6399344B1, “Isolated proteins having retinol dehydrogenase activity, and which associate with retinol binding receptors” (Ludwig Institute for Cancer Research, priority 1994, dated 2002)

What was measured:
[1] = Retinol dehydrogenase activity in membranes of baculovirus-infected Sf9 cells, reversed phase HPLC; assay type: biochemical, murine
Description: In order to generate a protein from a eukaryotic system, a 1.2 kilobase EcoRI fragment of the SEQ ID NO: 35 plasmid described supra was subcloned into a baculovirus expression vector, using known methods. Then, the vector was used to transfect Spodoptera frugiperda (“Sf9”) cells, again using known methods. Recombinant baculoviruses were then amplified by several rounds of amplification, and were then used in fresh Sf9 cells. A parallel set of experiments were also carried out, but using recombinant virus containing an unrelated gene, whose expression product had no retinol dehydrogenase activity.
Expressed protein was then assessed for enzyme activity. In brief, membranes equivalent to 25 ug of total membrane protein from infected cells were incubated in phosphate buffered saline (PBS), containing 100 uM of 9-cis retinol, or all-trans retinol. Final volumes of incubated materials were 200 ul. Either cofactor NAD+ or cofactor NADP was also added, to a final concentration of 200 uM. The mixture was incubated for 20 minutes at 37° C., after which alkaline ethanol was added. The mixture was then extracted with 2.0 ml of n-hexane. The organic phase was then removed and dried under argon. Dried phases were dissolved in ethanol, and aliquots were analyzed by reversed phase HPLC, using a C18 column, and a mobile phase of acetonitrile/water (85:15 v/v). Elution was at 1.0 ml/min, with effluent being monitored at 350 nm.

p63 = target: T1, p63 (Bos taurus, UniProt Q28175); experiment: Immunoprecipitation of radiolabelled RPE-membrane proteins with mAb A52 / rabbit antisera to p63, SDS-PAGE; assay type: binding; settings: solubilized bovine RPE membranes, immunoprecipitation with mAb A52 or rabbit antisera to p63
T1 construct: RPE-membrane proteins were then solubilized in phosphate-buffered saline; from tissue; host or cells: bovine retinal pigment epithelium (RPE) membrane fraction, CHAPS-solubilized, gel-filtered, 125I-labelled
T1 sequence (Q28175 2-533 limits assumed): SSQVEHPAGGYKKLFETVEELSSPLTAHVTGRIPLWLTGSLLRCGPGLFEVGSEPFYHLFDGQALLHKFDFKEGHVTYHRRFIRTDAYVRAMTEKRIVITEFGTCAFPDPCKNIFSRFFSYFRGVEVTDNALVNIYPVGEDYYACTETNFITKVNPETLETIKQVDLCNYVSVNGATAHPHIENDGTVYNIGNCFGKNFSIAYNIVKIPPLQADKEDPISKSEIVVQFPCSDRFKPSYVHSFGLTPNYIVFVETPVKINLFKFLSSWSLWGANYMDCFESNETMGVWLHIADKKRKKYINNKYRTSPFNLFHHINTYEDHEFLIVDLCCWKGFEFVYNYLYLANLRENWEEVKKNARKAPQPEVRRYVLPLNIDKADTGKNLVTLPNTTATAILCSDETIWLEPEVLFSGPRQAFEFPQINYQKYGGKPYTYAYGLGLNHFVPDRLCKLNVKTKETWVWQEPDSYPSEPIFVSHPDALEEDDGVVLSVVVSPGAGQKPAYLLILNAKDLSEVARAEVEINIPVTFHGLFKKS
Description: Bovine RPE-cells were isolated and membrane fractions were prepared as described in Bavik et al, J. Biol. Chem. 266:[…] (1991) incorporated by reference. RPE-membrane proteins were then solubilized in phosphate-buffered saline (PBS) (20 mM sodium phosphate, PH 7.2, containing 150 mM NaCl), containing 1% 3-[(3-cholamido-propyl) -dimethylammonio] -1-propane sulfonic acid (CHAPS) at 1 mg of total membrane protein/ml of buffer. Remaining material was removed by ultracentrifugation at 100,000×g for 1 hour. Next, 500 ul aliquots of the solubilized membranes were subjected to gel filtration on a Sepharose 6 column equilibrated in PBS containing 1% CHAPS. The column was operated at a flow rate of 0.2 ml/min and 500 ul fractions collected. Proteins eluted in fractions corresponding to globular proteins of Mr 150,000 to 400,000 were then radiolabelled with Na^125I using the well-known Chloramin T procedure. […]
Aliquots of the radiolabelled proteins were then diluted in PBS containing 1% CHAPS and 1% bovine serum albumin and subsequently subjected to immunoprecipitation using the mAb A52 to p63 (5 ug per incubation) or using two polyclonal rabbit antisera to p63 (3 ul of serum per incubation) See Bavik et al., J. Biol. Chem. 267:23035-23042 (1992). Non-specific immunoprecipitation was monitored in parallel incubations using an unrelated mAb and preimmune rabbit serum. […]

[2] = Retinol dehydrogenase activity of p32 in microsomal fractions of transfected COS-cells, HPLC; assay type: biochemical, bovine
Description: Specifically, the EcoRI—insert of pλ321 was cloned into the EcoR1-digested eucaryotic expression vector pSG5. See Green et al., Nucl. Acid Res. 16:39 (1988). COS-cells were maintained in Dulbecco's minimal essential medium supplemented with 10% fetal bovine serum, 2mM glutamine and antibiotics. The cells were seeded into 60 mm petri dishes (4×10^5 cells per dish) and transfected with 5 ug of plasmid per dish using DEAE dextran. Control cells were transfected with equal amounts of the parental vector alone. After treatment with 10% DMSO for 2 minutes, the cells were incubated for 72-96 hours, and then harvested by scraping the dishes with a rubber policeman, and the cells thereafter collected by low speed centrifugation. The collected cell pellets were next resuspended in hypotonic buffer (10 mM Tris-HCl, pH 7.5 containing 1mM phenyl-methylsufonyl fluoride), put on ice for 20 minutes, and then homogenized using a Dounce homogenator. Unbroken cells and debris were removed by centrifugation (3000×g)for 15 minutes. Microsomes were subsequently collected by ultra-centrifugation at 100,000×g for 1 hour; membrane pellets were stored at −80° C. until further analyzed.
Next, some of the enzymatic properties of p32 expressed in COS-cells were determined in a manner similar to that as described in the study of 11-cis-retinol dehydrogenase activity in microsomal fractions of RPE cells. See Saari et al., Anal. Biochem 213:[…] (1993).
In particular, enzymatic activity of p32 was assayed by incubating the microsomal fractions from the aforementioned transfected cells, and from control cells lacking p32, with varying combinations of the different stereo isomeric substrates, i.e., 11-cis-retinol or all-trans-retinol, in the presence of either cofactor NAD+ or NADP.
To assay for p32 activity in transfected cells, the final concentration of 11-cis-retinol and all-trans-retinol (obtained from Sigma Chemical Co.) in the incubations was reduced to 100 uM. Twenty ug of total membrane protein from COS-cells expressing p32 or from control cells were used in each incubation, and thereafter a 30 minute incubation at 37° C. in the presence or absence of NAD+ or NADP followed. Reaction mixtures were then extracted with n-hexane, and organic phases removed and dried under argon. The dried organic phases were then separately dissolved in ethanol and aliquots were analyzed on a normal phase silica HPLC column developed with n-hexane containing 4% dioxane at 1 ml per minute. See Saari et al. J. Biol. Chem. 257:13329-13333 (1982). Effluent was monitored at 330 nm. Under these conditions, 11-cis-retinaldehyde and 11-cis retinol eluted at 7 minutes and 22.5 minutes, respectively, and all-trans-retinaldehyde and all-trans retinol eluted at 8 minutes and 23 minutes, respectively.

[3] = experiments not elaborated upon

Row | Molecule | oxidation of 9-cis retinol, efficiency relative to mock infected cells ([1]; 100 uM 9-cis retinol, 20 minutes at 37° C.) | 9-cis retinaldehyde formation ([1]; 100 uM 9-cis retinol, cofactor NADP 200 uM) | 11-cis RDH activity [1, 3] | 13-cis RDH activity [1, 3] | coprecipitation with p63 (binding to p63) (p63) | 11-cis-retinol dehydrogenase activity (formation of 11-cis-retinaldehyde) ([2]; 100 uM 11-cis-retinol, cofactor NAD+, 30 minute at 37° C.) | formation of all-trans retinaldehyde from all-trans retinol ([2]; 100 uM all-trans-retinol, 30 minute at 37° C.) | 11-cis-retinol dehydrogenase activity ([2]; cofactor NADP) | 9-cis retinol dehydrogenase activity ([2]; further experiments, no details)
1 | protein encoded by SEQ ID NO: 35: murine liver membrane associated protein of about 34 kilodaltons with 9-cis, 11-cis and 13-cis retinol dehydrogenase activity (protein) MWLPLLLGALLWAVLWLLRDRQSLPASDAFIFITGCDSGFGRLLALQLDQKGFQVLAGCLTPSGAEDLQQMASSRLHTTLLDITDPQNVQQVAKWVKTRVGETGLFGLVNNAGVAGIIGPTPWLTQDDFQRVLSVNTLGPIGVTLALLPLLQQARGRVVNITSVLGRIAANGGGYCVSKFGLEAFSDSLRRDMAPFGVQVSIVEPGFFRTPVTNLESLESTLKACWARLPPAIQAHYGEAFLDTYLRVQRRIMNLICDPELTKVTSCLEHALTARHPRTRYSPGWDAKLLWLPASYLPARVVDAVLTWILPRPAQSVS | 8-10 times | Background levels | observed | 13-cis RDH activity |  |  |  |  | 
2 | p32: 32 kDa membrane associated bovine RPE protein that complexes with p63; stereo specific 11-cis-retinol dehydrogenase (SEQ ID NO: 10) (protein) MWLPLLLGVLLWAALWLLRDRQCLPASDAFIFITGCDSGFGRLLALRLDQRGFRVLASCLTPSGAEDLQRVASSRLHTTLLDVTDPQSIRQAVKWVETHVGEAGLFGLVNNAGVAGIIGPTPWQTREDFQRVLNVNTLGPIGVTLALLPLLLQARGRVINITSVLGRLAANGGGYCVSKFGLEAFSDSLRRDVAPFGVRVSIVEPGFFRTPVTNLETLEDTLQACWARLPPATQALYGEAFLTKYLRVQQRIMNMICDPDLAKVSRCLEHALTARHPRTRYSPGWDAKLLWLPASYLPARLVDAVLAWVLPKPAQTVY |  |  |  |  | coprecipitated | active | no significant formation of all-trans retinaldehyde | not enzymatically-active | has 9-cis retinol dehydrogenase activity
